T1: GST-SUV39H1 Nchromo (human, UniProt O43463 1-118)
T1 construct: human SUV39H1, C-terminal deletion up to amino acid 118 (SAC domain lost); source: bacterially expressed (pGEX5X-3), purified (Glutathione Sepharose 4B)
T1 sequence (looked up): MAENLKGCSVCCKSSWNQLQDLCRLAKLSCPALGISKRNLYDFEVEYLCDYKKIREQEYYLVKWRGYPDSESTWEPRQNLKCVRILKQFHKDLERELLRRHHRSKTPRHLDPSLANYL

T2: GST-SUV39H1 ΔSET (human, UniProt O43463 1-249)
T2 construct: human SUV39H1 that lost the SET domain and the C-terminal cysteine-rich region but keeps the SET-associated Cys-rich (SAC) domain; the text states no limits; source: bacterially expressed (pGEX5X-3), purified (Glutathione Sepharose 4B)
T2 sequence (looked up): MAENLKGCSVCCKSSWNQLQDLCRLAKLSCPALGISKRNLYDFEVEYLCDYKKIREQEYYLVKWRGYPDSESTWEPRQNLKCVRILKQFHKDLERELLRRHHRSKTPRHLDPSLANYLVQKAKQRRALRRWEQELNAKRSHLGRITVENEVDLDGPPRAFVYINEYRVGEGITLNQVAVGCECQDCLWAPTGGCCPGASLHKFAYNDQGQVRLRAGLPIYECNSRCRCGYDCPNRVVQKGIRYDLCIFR

T3: bacterially expressed GST-SUV39H1, wild type (human, UniProt O43463 1-412)
T3 construct: human SUV39H1, wild type; cDNA amplified from the start to the stop codon (SUV39H1-F1, SUV39H1-R1); the text counts the protein to amino acid 412; also called SUV39H1-WT; GST-fusion SUV39H1; source: bacterially expressed (pGEX5X-3), purified (Glutathione Sepharose 4B)
T3 sequence (looked up): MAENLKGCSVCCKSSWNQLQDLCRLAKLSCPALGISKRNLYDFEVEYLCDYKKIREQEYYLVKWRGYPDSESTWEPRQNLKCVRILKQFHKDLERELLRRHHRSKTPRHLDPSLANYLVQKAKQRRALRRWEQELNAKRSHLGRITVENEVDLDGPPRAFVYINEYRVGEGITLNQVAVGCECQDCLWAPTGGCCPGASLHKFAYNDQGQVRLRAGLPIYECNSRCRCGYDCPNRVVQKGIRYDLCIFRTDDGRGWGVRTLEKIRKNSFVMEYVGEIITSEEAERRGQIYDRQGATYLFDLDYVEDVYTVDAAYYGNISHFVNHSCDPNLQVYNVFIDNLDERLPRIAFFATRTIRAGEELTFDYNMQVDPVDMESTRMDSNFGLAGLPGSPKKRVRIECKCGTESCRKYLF

B1: histidine-tagged wild type Tax (His-Tax) (natural protein)
chain: not shown
notes: Tax protein of HTLV-1, wild type; also called His-tagged Tax protein; source: bacterially expressed (pET3d/Tax), purified (ProBond Resin)
B2: in vitro translated TaxN180 (domain or fragment)
chain: not shown
modifications: labeled with 35S-methionine
notes: HTLV-1 Tax with a C-terminal deletion up to 180 amino acids; source: in vitro translated (TNT QuickCoupled Transcription/Translation Systems, Promega)

Experiments:
[1] = target: T1, GST-SUV39H1 Nchromo; assay: pull-down; wild type or mutant GST-SUV39H1 or GST (2 ug) bound to Glutathione-Sepharose 4B, mixed with His-tagged Tax (2 ug) in cold PBS, 4°C, one hour; immunoblot with Lt-4; band intensities by NIH Image; details: both partners purified
[2] = target: T2, GST-SUV39H1 ΔSET; assay: as above; details: both partners purified
[3] = target: T3, bacterially expressed GST-SUV39H1, wild …; assay: pull-down; GST-SUV39H1 bound to Glutathione-Sepharose 4B, mixed with in vitro translated 35S-labeled Tax proteins (one fourth of the reaction mixture); autoradiography, signals by BAS2000; details: one partner purified

Row | Binder | band intensity relative to the wild type [1] | band intensity relative to the wild type [2] | radioactivity relative to the wild type Tax [3]
1 | B1 | ~0.1 of the band intensity of the wild type | < 0.5 of the band intensity of the wild type | 
2 | B2 |  |  | ~0.5 of the radioactivity of the wild type Tax

Source: paper PMC1363732, “SUV39H1 interacts with HTLV-1 Tax and abrogates Tax transactivation of HTLV-1 LTR” (Retrovirology, 2006)
